Reference: patent US20060292157A1 (TRUSTEES OF COLUMBIA UNIVERSITY IN THE CITY OF NEW YORK, published 2006)

Target: T1, BiP/GRP78 (endogenous) (human (endogenous in human HeLa cells), UniProt P11021 19-654)
T1 construct: Immunoprecipitated from cell lysates with BiP/GRP78 antibodies; also called ER chaperone BiP/GRP78
Experiment: co-IP with BiP/GRP78 antibodies, blot with Flag antibodies; wild type against C/F mutants; HeLa and P69 cells
Description: These mutants were used to examine whether disruption of these regions altered interaction with BiP/GRP78 in HeLa (FIG. 11E) and P69 cells. BiP/GRP78 was immunoprecipitated using BiP/GRP78 antibodies and the membrane was probed with Flag antibodies (FIG. 11E). The C/F helix mutants of MDA-7/1IL-24 and M4 lost their ability to bind to BiP/GRP78 (FIG. 11E).
Cells were infected with Ad.vec, Ad.M4 or Ad.mda-7 or transfected with various plasmid (Flag tagged MDA7 or M4 and Myc tagged BiP) constructs in a 100-mm dish and after 48 h cells were rinsed with ice-cold phosphate buffered saline (PBS). Cells were lysed in 1 ml of immunoprecipitation buffer containing 25 mM Tris-Cl pH8.0, 137 mM NaCl, 2.5 mM KCl, 1% Triton X-100 and protease inhibitor mix. Cells were scrapped from the plates, transferred into microfuge tubes and rotated at 4° C. for 30 minutes. Tubes were centrifuged for 10 min at 13,000 rpm and 10 μl of supernatant were incubated with 50% Protein A agarose and rotated at 4° C. for 1 h to eliminate non-specific interactions. Samples were centrifuged and mixed with anti BiP/Grp78 or 9E10 myc monoclonal antibodies (1:200) dilution and rotated overnight at 4° C. Immune-complexes were precipitated with 25 μl of 50% protein A agarose for 2 h. […]

T1 sequence (P11021 19-654 limits assumed): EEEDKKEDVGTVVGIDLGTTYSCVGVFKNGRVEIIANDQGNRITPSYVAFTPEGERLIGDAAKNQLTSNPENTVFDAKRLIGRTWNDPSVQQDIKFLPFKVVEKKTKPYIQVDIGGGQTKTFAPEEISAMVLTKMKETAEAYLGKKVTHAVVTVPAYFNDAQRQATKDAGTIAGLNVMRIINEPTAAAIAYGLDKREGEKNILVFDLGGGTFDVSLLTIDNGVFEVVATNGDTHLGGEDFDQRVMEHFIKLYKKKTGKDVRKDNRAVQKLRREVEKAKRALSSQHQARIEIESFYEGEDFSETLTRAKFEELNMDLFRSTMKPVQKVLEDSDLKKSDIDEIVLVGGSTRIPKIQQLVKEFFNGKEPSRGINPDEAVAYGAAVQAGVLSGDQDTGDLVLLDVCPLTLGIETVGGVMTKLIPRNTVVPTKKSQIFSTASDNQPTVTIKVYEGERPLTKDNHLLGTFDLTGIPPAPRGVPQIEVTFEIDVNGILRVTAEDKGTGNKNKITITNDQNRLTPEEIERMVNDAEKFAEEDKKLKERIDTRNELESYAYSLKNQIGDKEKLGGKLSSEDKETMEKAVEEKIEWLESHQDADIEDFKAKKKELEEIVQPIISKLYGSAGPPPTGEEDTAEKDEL

binding result: binds
B1: Flag-tagged M4 (amino acids 104-206 of MDA-7/IL-24, pCMV3xFlag) (other)
chain: ESCYLVHTLLEFYLKTVFKNYHNRTVEVRTLKSFSTLANNFVLIVSQLQPSQENEMFSIRDSAHRRFLLFRRAFKQLDVEAALTKALGEVDILLTWMQKFYKL
notes: Transiently expressed in HeLa cells; also called Flag M4; not shown: three Flag tags at the N-terminus from vector pCMV3xFlag (Sigma)
